Data published in PMC1874666 (Nucleic Acids Research, 2007).

Target: the molecule itself
Assay: AUC

B1: Helicobacter pylori neutrophil-activating protein (HP-NAP) (natural protein, UniProt P43313 1-144, looked up)
chain: MKTFEILKHLQADAIVLFMKVHNFHWNVKGTDFFNVHKATEEIYEEFADMFDDLAERIVQLGHHPLVTLSEAIKLTRVKEETKTSFHSKDIFKEILEDYKYLEKEFKELSNTAEKEGDKVTVTYADDQLAKLQKSIWMLQAHLA
Which “stoichiometry N” value does the source give for B1 here?
The value was 12.
